Results as given in patent US9949464.

Target: green fluorescent protein (GFP), EGFP expressed from pCAG-GFP [GFP: P42212]
Assay: cell-based or functional assay

induction of recombination of a floxed luciferase reporter in 293T cells: 20 to 60 fold
Substance: CRE-DOG (Cre-recombinase Dependent on GFP), GBP2+GBP7 combination: N-CreintG with C-CreintG
